Laboratory results published in the supplement of paper PMC9112550, “Optimization of the antimicrobial peptide Bac7 by deep mutational scanning” (BMC Biology, 2022).

System: Escherichia coli TOP10
Assay: shrunken log2 fold change of peptide-encoding DNA abundance (4.5 h post-induction vs induction); higher = less antimicrobial activity (less host growth inhibition)
Conditions: time post-induction: 4.5 h; library: site-saturation at positions 5, 18, 19, 20
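Also: peptides expressed intracellularly from a pBAD plasmid library in pooled LB shake-flask culture, induced with 0.3% L-arabinose, DNA abundance read by NGS, three biological replicates, DESeq2 with apeglm shrinkage.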

| Sequence | shrunken log2 fold change |
| --- | --- |
| RRIRQRPPRLPRPRPRPIFHPRP | -0.176 |
| RRIRDRPPRLPRPRPRPPKSPRP | 0.555 |
| RRIRKRPPRLPRPRPRPKLMPRP | 0.267 |
| RRIRGRPPRLPRPRPRPHIMPRP | -0.0914 |
| RRIRWRPPRLPRPRPRPCFCPRP | 0.126 |
| RRIRCRPPRLPRPRPRPVWMPRP | -0.179 |
| RRIRNRPPRLPRPRPRPWGTPRP | 0.0962 |
| RRIRLRPPRLPRPRPRPYLHPRP | -0.447 |
| RRIRLRPPRLPRPRPRPMAKPRP | 0.109 |
| RRIRHRPPRLPRPRPRPVDPPRP | -0.0989 |
| RRIRARPPRLPRPRPRPLCKPRP | 0.326 |
| RRIRPRPPRLPRPRPRPQHRPRP | 0.162 |
| RRIRNRPPRLPRPRPRPQFRPRP | 0.00019 |
| RRIRPRPPRLPRPRPRPLHYPRP | -0.11 |
| RRIRCRPPRLPRPRPRPMFLPRP | -0.847 |
| RRIRNRPPRLPRPRPRPCMMPRP | -0.325 |
| RRIRMRPPRLPRPRPRPSSQPRP | 0.212 |
| RRIRDRPPRLPRPRPRPLPQPRP | 0.282 |
| RRIRLRPPRLPRPRPRPPGAPRP | 0.54 |
| RRIRDRPPRLPRPRPRPFFGPRP | 1.19 |
| RRIRARPPRLPRPRPRPQCYPRP | -0.0761 |
| RRIRFRPPRLPRPRPRPRNAPRP | 0.347 |
| RRIRQRPPRLPRPRPRPTWLPRP | 0.295 |
| RRIRPRPPRLPRPRPRPDAPPRP | 0.227 |
| RRIRNRPPRLPRPRPRPRYHPRP | -0.438 |

| Sequence | shrunken log2 fold change |
| --- | --- |
| RRIRIRPPRLPRPRPRPWLAPRP | -0.12 |
| RRIRDRPPRLPRPRPRPFFSPRP | 0.115 |
| RRIRTRPPRLPRPRPRPNLTPRP | -0.00355 |
| RRIRARPPRLPRPRPRPHTNPRP | -0.227 |
| RRIRVRPPRLPRPRPRPMKFPRP | -0.124 |
| RRIRMRPPRLPRPRPRPFNIPRP | -0.3 |
| RRIRERPPRLPRPRPRPCLKPRP | 0.0135 |
| RRIRRRPPRLPRPRPRPPDMPRP | 0.432 |
| RRIRTRPPRLPRPRPRPWMCPRP | 0.0404 |
| RRIRPRPPRLPRPRPRPEHDPRP | -0.00589 |
| RRIRPRPPRLPRPRPRPMQYPRP | -0.0088 |
| RRIRFRPPRLPRPRPRPNWFPRP | 0.0383 |
| RRIRERPPRLPRPRPRPYMQPRP | -0.326 |
| RRIRCRPPRLPRPRPRPDICPRP | -0.22 |
| RRIRGRPPRLPRPRPRPKMHPRP | 0.769 |
| RRIRTRPPRLPRPRPRPNKYPRP | -0.76 |
| RRIRRRPPRLPRPRPRPCAWPRP | 0.0864 |
| RRIRIRPPRLPRPRPRPVLRPRP | -0.0796 |
| RRIRNRPPRLPRPRPRPHIDPRP | -0.186 |
| RRIRTRPPRLPRPRPRPTQEPRP | -0.0182 |
| RRIRIRPPRLPRPRPRPIEWPRP | -0.123 |
| RRIRSRPPRLPRPRPRPVQAPRP | 0.0475 |
| RRIRPRPPRLPRPRPRPWGHPRP | -0.0804 |
| RRIRQRPPRLPRPRPRPWHPPRP | -0.0543 |
| RRIRIRPPRLPRPRPRPDYQPRP | -0.611 |

| Sequence | shrunken log2 fold change |
| --- | --- |
| RRIRGRPPRLPRPRPRPQSFPRP | 0.218 |
| RRIRDRPPRLPRPRPRPQLNPRP | -0.267 |
| RRIRERPPRLPRPRPRPMQHPRP | -0.04 |
| RRIRFRPPRLPRPRPRPCPPPRP | -0.131 |
| RRIRVRPPRLPRPRPRPWGWPRP | 0.331 |
| RRIRMRPPRLPRPRPRPLHHPRP | -0.0632 |
| RRIRFRPPRLPRPRPRPQFDPRP | -0.286 |
| RRIRHRPPRLPRPRPRPWCAPRP | -0.145 |
| RRIRARPPRLPRPRPRPCHCPRP | 0.164 |
| RRIRSRPPRLPRPRPRPSVRPRP | -0.0911 |
| RRIRMRPPRLPRPRPRPIEVPRP | -0.00822 |
| RRIRNRPPRLPRPRPRPKYIPRP | -0.667 |
| RRIRFRPPRLPRPRPRPMFCPRP | -0.111 |
| RRIRGRPPRLPRPRPRPVICPRP | 0.252 |
| RRIRWRPPRLPRPRPRPRFDPRP | 0.147 |
| RRIRQRPPRLPRPRPRPIYYPRP | -1.26 |
| RRIRLRPPRLPRPRPRPRKIPRP | 0.103 |
| RRIRCRPPRLPRPRPRPFDNPRP | -0.437 |
| RRIRPRPPRLPRPRPRPAPDPRP | 0.309 |
| RRIRVRPPRLPRPRPRPNLPPRP | 0.232 |
| RRIRMRPPRLPRPRPRPDAVPRP | 3.73 |
| RRIRWRPPRLPRPRPRPHFKPRP | -0.179 |
| RRIRRRPPRLPRPRPRPNDTPRP | -0.115 |
| RRIRSRPPRLPRPRPRPVKCPRP | -0.0337 |
| RRIRMRPPRLPRPRPRPGCTPRP | 0.245 |
